Measured values published in patent publication US20100158968A1.

Columns and labels:
[1] = target: PKCδ (h) (protein kinase C) (human), Q05655; assay: cell-based or functional assay
[2] = target: mitogen-activated protein kinase-activated protein kinase 2 (human MK2) (human), P49137; assay: kinase inhibition, radiometric assay; conditions: modification not given
Chain of mitogen-activated protein kinase-activated protein kinase 2 (human MK2) (human), P49137 (P49137 46-400): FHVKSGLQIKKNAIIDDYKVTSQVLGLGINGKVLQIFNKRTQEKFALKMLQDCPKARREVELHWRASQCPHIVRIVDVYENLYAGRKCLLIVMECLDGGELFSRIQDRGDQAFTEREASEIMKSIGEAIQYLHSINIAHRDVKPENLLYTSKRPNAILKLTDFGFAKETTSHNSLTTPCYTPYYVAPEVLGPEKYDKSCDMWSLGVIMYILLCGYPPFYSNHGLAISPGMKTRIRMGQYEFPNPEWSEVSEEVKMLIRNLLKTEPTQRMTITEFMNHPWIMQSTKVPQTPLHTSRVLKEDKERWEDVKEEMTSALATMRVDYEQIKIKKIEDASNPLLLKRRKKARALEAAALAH

Chain of PKCδ (h) (protein kinase C) (human), Q05655 (Q05655 whole entry, stated change not applied): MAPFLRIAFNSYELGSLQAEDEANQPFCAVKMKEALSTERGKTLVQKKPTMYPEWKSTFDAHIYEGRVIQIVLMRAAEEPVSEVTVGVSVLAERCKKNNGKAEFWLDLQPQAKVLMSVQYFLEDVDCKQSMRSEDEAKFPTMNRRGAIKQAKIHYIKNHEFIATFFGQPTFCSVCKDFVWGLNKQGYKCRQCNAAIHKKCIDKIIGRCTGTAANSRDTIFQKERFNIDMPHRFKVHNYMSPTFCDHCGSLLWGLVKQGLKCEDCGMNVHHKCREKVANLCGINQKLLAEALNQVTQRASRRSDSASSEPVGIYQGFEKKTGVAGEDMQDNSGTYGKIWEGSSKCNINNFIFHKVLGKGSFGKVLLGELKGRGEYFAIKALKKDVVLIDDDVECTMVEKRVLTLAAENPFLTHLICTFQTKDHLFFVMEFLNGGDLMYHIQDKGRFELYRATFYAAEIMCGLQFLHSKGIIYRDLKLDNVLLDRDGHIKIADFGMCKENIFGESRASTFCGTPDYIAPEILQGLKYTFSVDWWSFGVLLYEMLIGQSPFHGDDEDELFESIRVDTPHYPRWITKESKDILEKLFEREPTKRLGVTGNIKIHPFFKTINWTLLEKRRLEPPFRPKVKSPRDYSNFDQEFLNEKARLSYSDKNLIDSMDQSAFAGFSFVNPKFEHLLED

B1: … (peptide)
peptide: WLRRIKAWLRRIKALNRQLGVAA
Kinase Activity, peptide at 30 µM, radiometric assay [1]: 11% | IC50 [2]: 0.737 µM

B2: … (peptide)
chain: FAKLAARLYRKALARQLGVAA
IC50 [2]: 1.77 µM

B3: … (peptide)
peptide: YARAAARQARALNRQLGVAA
Kinase Activity, peptide at 300 µM, radiometric assay [1]: 105%

B4: … (peptide)
peptide: KAFAKLAARLYRLARQLGVAA
Kinase Activity, peptide at 100 µM, radiometric assay [1]: 24%

B5: … (peptide)
chain: YARAAARQARAKALNRQLAVA
IC50 [2]: 18.9 µM

B6: … (peptide)
peptide: YARAAARQARALARQLGVAA
Kinase Activity, peptide at 300 µM, radiometric assay [1]: 101%

B7: … (peptide)
peptide: FAKLAARLYRLARQLGVAA
Kinase Activity, peptide at 100 µM, radiometric assay [1]: 40%

B8: … (peptide)
chain: YARAAARQARAKALARQLAVA
IC50 [2]: 28.4 µM
